Test results reported in the supplement of paper PMC9112550, “Optimization of the antimicrobial peptide Bac7 by deep mutational scanning” (BMC Biology, 2022).

Test system: Escherichia coli TOP10
Experiment: shrunken log2 fold change of peptide-encoding DNA abundance (4.5 h post-induction vs induction); higher = less antimicrobial activity (less host growth inhibition)
Details: time post-induction: 4.5 h; library: site-saturation at positions 5, 18, 19, 20
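Also: peptides expressed intracellularly from a pBAD plasmid library in pooled LB shake-flask culture, induced with 0.3% L-arabinose, DNA abundance read by NGS, three biological replicates, DESeq2 with apeglm shrinkage.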

Sequence	shrunken log2 fold change
RRIRHRPPRLPRPRPRPPRCPRP	0.526
RRIRQRPPRLPRPRPRPHFHPRP	-0.396
RRIRRRPPRLPRPRPRPTEGPRP	0.18
RRIRMRPPRLPRPRPRPFFFPRP	0.365
RRIRMRPPRLPRPRPRPQWGPRP	0.0503
RRIRARPPRLPRPRPRPHGTPRP	-0.0246
RRIRSRPPRLPRPRPRPDNQPRP	-0.568
RRIRVRPPRLPRPRPRPAAEPRP	0.109
RRIRCRPPRLPRPRPRPTSSPRP	-0.11
RRIRSRPPRLPRPRPRPAQTPRP	0.0615
RRIRFRPPRLPRPRPRPYKAPRP	-0.153
RRIRYRPPRLPRPRPRPFQEPRP	-0.152
RRIRLRPPRLPRPRPRPCWCPRP	0.0793
RRIRRRPPRLPRPRPRPQMLPRP	0.246
RRIRTRPPRLPRPRPRPHGAPRP	-0.0597
RRIRERPPRLPRPRPRPNDRPRP	-0.426
RRIRTRPPRLPRPRPRPKPFPRP	0.122
RRIRMRPPRLPRPRPRPKTWPRP	0.602
RRIRNRPPRLPRPRPRPRFEPRP	0.108
RRIRTRPPRLPRPRPRPLMGPRP	0.0521
RRIRIRPPRLPRPRPRPACNPRP	-0.363
RRIRMRPPRLPRPRPRPREGPRP	0.79
RRIRYRPPRLPRPRPRPVGGPRP	-0.179
RRIRERPPRLPRPRPRPLSIPRP	-0.367
RRIRSRPPRLPRPRPRPFRGPRP	-0.242

Sequence	shrunken log2 fold change
RRIRKRPPRLPRPRPRPSIMPRP	-0.195
RRIRMRPPRLPRPRPRPMNMPRP	-0.344
RRIRVRPPRLPRPRPRPNSMPRP	-0.575
RRIRDRPPRLPRPRPRPVFAPRP	0.597
RRIRRRPPRLPRPRPRPMYMPRP	-0.212
RRIRIRPPRLPRPRPRPINLPRP	-0.146
RRIRNRPPRLPRPRPRPTFHPRP	-0.422
RRIRDRPPRLPRPRPRPCNFPRP	-0.0419
RRIRNRPPRLPRPRPRPDIPPRP	-0.588
RRIRPRPPRLPRPRPRPAHLPRP	0.317
RRIRLRPPRLPRPRPRPLCVPRP	0.688
RRIRHRPPRLPRPRPRPGNVPRP	-0.36
RRIRPRPPRLPRPRPRPIGWPRP	0.376
RRIRHRPPRLPRPRPRPTCHPRP	-0.647
RRIRYRPPRLPRPRPRPYGSPRP	-0.843
RRIRKRPPRLPRPRPRPKNQPRP	0.419
RRIRRRPPRLPRPRPRPKPPPRP	0.735
RRIRERPPRLPRPRPRPLGRPRP	-0.0894
RRIRSRPPRLPRPRPRPQDWPRP	-0.0642
RRIRDRPPRLPRPRPRPPGKPRP	0.176
RRIRCRPPRLPRPRPRPRWVPRP	2.6
RRIRQRPPRLPRPRPRPQRIPRP	-0.226
RRIRWRPPRLPRPRPRPIPHPRP	0.0496
RRIRKRPPRLPRPRPRPTTVPRP	0.331
RRIRGRPPRLPRPRPRPHTHPRP	0.0537

Sequence	shrunken log2 fold change
RRIRQRPPRLPRPRPRPYESPRP	-0.261
RRIRYRPPRLPRPRPRPAHLPRP	-0.0584
RRIRVRPPRLPRPRPRPHIGPRP	-0.0312
RRIRPRPPRLPRPRPRPFCSPRP	-0.186
RRIRIRPPRLPRPRPRPPYYPRP	-0.827
RRIRCRPPRLPRPRPRPFYEPRP	-0.741
RRIRPRPPRLPRPRPRPKVEPRP	0.00158
RRIRWRPPRLPRPRPRPLAIPRP	0.0258
RRIRLRPPRLPRPRPRPFTYPRP	-0.0906
RRIRFRPPRLPRPRPRPLVYPRP	-0.631
RRIRLRPPRLPRPRPRPNRWPRP	0.254
RRIRLRPPRLPRPRPRPFNSPRP	-0.431
RRIRVRPPRLPRPRPRPQKFPRP	-0.278
RRIRHRPPRLPRPRPRPACYPRP	-0.226
RRIRHRPPRLPRPRPRPLAPPRP	0.196
RRIRQRPPRLPRPRPRPLIEPRP	-0.042
RRIRIRPPRLPRPRPRPITMPRP	-1.08
RRIRFRPPRLPRPRPRPFCMPRP	-0.62
RRIRSRPPRLPRPRPRPSRVPRP	0.107
RRIRWRPPRLPRPRPRPTACPRP	0.317
RRIRNRPPRLPRPRPRPQYIPRP	-0.0546
RRIRRRPPRLPRPRPRPRRFPRP	0.352
RRIRWRPPRLPRPRPRPESWPRP	1.05
RRIRMRPPRLPRPRPRPYSMPRP	-0.245
RRIRSRPPRLPRPRPRPGHRPRP	-0.326

Sequence	shrunken log2 fold change
RRIRIRPPRLPRPRPRPWIIPRP	-0.207
RRIRHRPPRLPRPRPRPYRAPRP	-0.258
RRIRFRPPRLPRPRPRPFIHPRP	-0.724
RRIRDRPPRLPRPRPRPCVWPRP	0.321
RRIRRRPPRLPRPRPRPMHNPRP	0.384
RRIRLRPPRLPRPRPRPNNRPRP	-0.79
RRIRFRPPRLPRPRPRPGYHPRP	-1.45
RRIRPRPPRLPRPRPRPRLEPRP	0.197
RRIRQRPPRLPRPRPRPNRFPRP	-0.00894
RRIRWRPPRLPRPRPRPWDQPRP	0.00408
RRIRKRPPRLPRPRPRPGGDPRP	0.16
RRIRDRPPRLPRPRPRPEILPRP	-0.101
RRIRKRPPRLPRPRPRPSEKPRP	0.428
RRIRIRPPRLPRPRPRPGVGPRP	0.435
RRIRCRPPRLPRPRPRPRRWPRP	0.646
RRIRRRPPRLPRPRPRPPLTPRP	0.841
RRIRQRPPRLPRPRPRPGCAPRP	0.507
RRIRIRPPRLPRPRPRPTAKPRP	-0.184
RRIRERPPRLPRPRPRPKAAPRP	0.0382
RRIRERPPRLPRPRPRPVAYPRP	-0.178
RRIRTRPPRLPRPRPRPMSKPRP	-0.0499
RRIRGRPPRLPRPRPRPYSYPRP	-0.0264
RRIRARPPRLPRPRPRPIAGPRP	0.163
RRIRERPPRLPRPRPRPHCYPRP	-0.291
RRIRNRPPRLPRPRPRPNGGPRP	0.153

Sequence	shrunken log2 fold change
RRIRWRPPRLPRPRPRPCEDPRP	0.115
RRIRNRPPRLPRPRPRPDQYPRP	-0.337
RRIRARPPRLPRPRPRPMNFPRP	-0.0564
RRIRKRPPRLPRPRPRPTVKPRP	0.19
RRIRTRPPRLPRPRPRPIKVPRP	0.0474
RRIRTRPPRLPRPRPRPYMSPRP	-0.0144
RRIRDRPPRLPRPRPRPPQFPRP	-0.15
RRIRQRPPRLPRPRPRPCTAPRP	0.139
RRIRGRPPRLPRPRPRPLVHPRP	-0.0335
RRIRERPPRLPRPRPRPSRRPRP	-0.432
RRIRRRPPRLPRPRPRPWLDPRP	-0.0721
RRIRKRPPRLPRPRPRPPQSPRP	0.863
RRIRGRPPRLPRPRPRPPPFPRP	0.887
RRIRTRPPRLPRPRPRPVNRPRP	-0.0356
RRIRHRPPRLPRPRPRPEDKPRP	-0.0488
RRIRWRPPRLPRPRPRPHITPRP	-0.699
RRIRYRPPRLPRPRPRPTFMPRP	-0.0549
RRIRVRPPRLPRPRPRPTVCPRP	0.518
RRIRARPPRLPRPRPRPRFIPRP	-0.259
RRIRKRPPRLPRPRPRPCATPRP	0.242
RRIRCRPPRLPRPRPRPRTTPRP	0.472
RRIRNRPPRLPRPRPRPCRNPRP	-0.437
RRIRERPPRLPRPRPRPHFLPRP	-0.458
RRIRTRPPRLPRPRPRPSHRPRP	-0.463
RRIRLRPPRLPRPRPRPHWTPRP	-0.015
